B1: Interferon-induced, double-stranded RNA-activated protein kinase (Homo sapiens), P19525 (parent)
chain: MAGDLSAGFFMEELNTYRQKQGVVLKYQELPNSGPPHDRRFTFQVIIDGREFPEGEGRSKKEAKNAAAKLAVEILNKEKKAVSPLLLTTTNSSEGLSMGNYIGLINRIAQKKRLTVNYEQCASGVHGPEGFHYKCKMGQKEYSIGTGSTKQEAKQLAAKLAYLQILSEETSVKSDYLSSGSFATTCESQSNSLVTSTLASESSSEGDFSADTSEINSNSDSLNSSSLLMNGLRNNQRKAKRSLAPRFDLPDMKETKYTVDKRFGMDFKEIELIGSGGFGQVFKAKHRIDGKTYVIKRVKYNNEKAEREVKALAKLDHVNIVHYNGCWDGFDYDPETSDDSLESSDYDPENSKNSSRSKTKCLFIQMEFCDKGTLEQWIEKRRGEKLDKVLALELFEQITKGVDYIHSKKLIHRDLKPSNIFLVDTKQVKIGDFGLVTSLKNDGKRTRSKGTLRYMSPEQISSQDYGKEVDLYALGLILAELLHVCDTAFETSKFFTDLRDGIISDIFDKKEKTLLQKLLSKKPEDRPNTSEILRTLTVWKKSPEKNERHTC

Variants of: B1
Settings: with nlrp3_human NLRP3, Q96P20
Chain of nlrp3_human NLRP3, Q96P20 (Q96P20 whole entry): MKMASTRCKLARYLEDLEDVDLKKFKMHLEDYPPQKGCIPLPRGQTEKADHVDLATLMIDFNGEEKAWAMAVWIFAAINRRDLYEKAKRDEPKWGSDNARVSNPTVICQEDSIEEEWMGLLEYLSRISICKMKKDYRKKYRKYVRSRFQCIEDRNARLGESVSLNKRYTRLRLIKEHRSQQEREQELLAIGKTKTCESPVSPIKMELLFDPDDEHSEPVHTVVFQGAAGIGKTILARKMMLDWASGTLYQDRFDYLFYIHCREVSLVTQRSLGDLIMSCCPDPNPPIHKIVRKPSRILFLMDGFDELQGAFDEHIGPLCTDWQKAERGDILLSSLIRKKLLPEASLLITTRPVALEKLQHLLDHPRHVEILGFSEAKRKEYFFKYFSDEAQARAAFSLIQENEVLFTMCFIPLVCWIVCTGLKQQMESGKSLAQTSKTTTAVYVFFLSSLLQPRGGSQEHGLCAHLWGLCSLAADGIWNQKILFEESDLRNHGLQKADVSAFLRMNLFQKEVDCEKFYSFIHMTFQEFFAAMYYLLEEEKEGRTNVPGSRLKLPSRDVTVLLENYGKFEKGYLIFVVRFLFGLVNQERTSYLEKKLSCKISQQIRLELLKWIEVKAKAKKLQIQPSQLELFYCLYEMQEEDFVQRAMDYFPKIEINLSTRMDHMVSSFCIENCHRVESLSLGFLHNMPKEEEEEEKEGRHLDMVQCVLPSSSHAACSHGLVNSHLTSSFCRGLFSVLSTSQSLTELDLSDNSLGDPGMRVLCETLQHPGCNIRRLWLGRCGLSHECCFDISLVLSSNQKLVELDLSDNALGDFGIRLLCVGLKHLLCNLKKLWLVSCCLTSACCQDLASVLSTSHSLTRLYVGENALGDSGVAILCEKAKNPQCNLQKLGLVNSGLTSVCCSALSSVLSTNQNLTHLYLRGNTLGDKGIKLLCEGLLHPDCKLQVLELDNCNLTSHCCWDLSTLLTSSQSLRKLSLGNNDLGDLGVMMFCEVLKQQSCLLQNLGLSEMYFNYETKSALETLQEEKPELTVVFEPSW

effect of a mutation on the interaction	Variant
disrupting interaction strength	K296R

Source: IntAct's records for PubMed 22801494
